B1: ADI-20971 (antibody, V domains shown)
VH: EVQLVESGGGLVKPGESLRLSCAASGFTFSDYSMTWIRQAPGKGLLEWIAYINSQSNYMDYADSVKGRFTISRDNAKNSLYLQMNGLRADDTAVYFCARDRRTFVAATLGWFDPWGQGTLVTVSS
VL: ETTLTQSPATLSVSPGERATLSCRASQSVSNNVAWYQQKPGQAPRVLIYAASTRATGIPARFSGSESGTEFTLTISSLQSEDFAVYYCQQYNNWPRTFGQGTKLEIK
B2: ADI-20983 (antibody, V domains shown)
VH: EVQLVESGGALVQPGGSLRLSCSASGFTFSSYAMHWVRQAPGKGLEYVSAINNFGDKTYYTDSVEGRFTISRDNSKKTLYLQMSSLRPEDTAVYYCVKDRGYCSSPSCYAVPYYYFYGMDVWGQGTTVTVSS
VL: EIVMTQSPSSLSASVGDRVTITCQASQGISNYLHWYQQKPGKAPKLLIYDASNLEAGVPSRFSGSGAGTDFTFTISSLQPEDVATYYCQHYNNLPFTFGPGTKVDIK
B3: ADI-20969 (antibody, V domains shown)
VH: EVQLVESGGGLVKPGGSLRLSCAASGFKFSSYTMNWVRQAPGKGLEWVSSVSASSSYIFYADSVQGRFIISRDNAQNSLYLQMNSLRADDTAVYYCARDQYGPGHYYNPAWFDPWGQGTLVTVSS
VL: QPVLTQPPSVSGAPGQRVTISCTGTSSNIGAGYDVHWYKQLPGTAPKVLIYGNTNRPSGIPDRFSGSKSGTSASLAITGLKAEDEADYYCQSYDRSGSKVFGTGTKLTVL
B4: ADI-21032 (antibody, V domains shown)
VH: EVQLVESGGGLVKPGGSLRLSCAVSGFKFSSYTMNWVRQAPGKGLEWVSSVSASSSYIFYADSVQGRFIISRDNAQNSLYLQMNSLRADDTAVYYCTRDQYGPGHYYNPAWFDPWGQGTLVTVSS
VL: QPVLTQPPSASGAPGQRVTISCTGSSSNIGAGYDVHWYQQLPGTAPKVLIYGNTNRPSGIPDRFSGSKSGTSASLAIIGLQAEDEADYYCQSYDRNGSKVFGTGTKLTVL
notes: also called Ab 280
B5: ADI-20999 (antibody, V domains shown)
VH: QVQLQESGPVLVKPSETLSLTCTVSGGSITSSAYYWGWIRQPPGKGLEWIGSVSYSGTTSYTPSLKSRVTISGDASKEQFSLNLRSVTAADTAVYYCARQTKAFGRRDYGMDVWGQGTTVTVSS
VL: QPVLTQPPSVSAAPGQKVTISCSGSNSNIGSNFVSWYQQLPGTAPKLLIYENNKRPSGIPDRFSGSKSGPSATLGITGLQTEDEADYYCGTWDTGLSAHWVFGGGTKLTVL
notes: also called Ab 250
B6: ADI-20986 (antibody, V domains shown)
VH: EVQLVESGGGLVQPGGSLRLSCVASGFTFSNYWMNWVRQAPGKGLEWVANIKEDGSEIKYVDSVKGRFTISRDNAKNSLYLQMNSLRAEDTAVYYCARTEDSSSWFVAIDYYNYMDVWGKGTTVTVSS
VL: DIQVTQSPGTLSLSPGERATLSCRASQTVSSSYLAWYQQKPGQAPRLLFYGASSRATDIPDRFSASGSGTDFTLTIHRLEPEDFAVYYCQLYGRSPPYTFGQGTKVEIK
B7: ADI-20988 (antibody, V domains shown)
VH: EVQLVESGGEVKKPGASVKVSCKTSGYPFSNYGISWMRLAPGQGLEWMGWISSYNGNTYYTKKFQGRVSMTTDTSTSTAYMELRSLRSDDTAVYYCARDVPVIAAHTFEYWGQGTLVTVSS
VL: ETTLTQSPLSLPVTLGQPASISCRSSESLVYSDGNTYLSWFQQRPGQSPRRIIYKVSNRDSGVPDRFSGSGSGTDFTLKISRVEAEDVGVYYCMQATHWPRDTFGQGTKVDIK
notes: also called Ab 240
B8: ADI-20992 (antibody, V domains shown)
VH: EVQLVESGGGLVQPGGSLRLSCVVSGFTFKSYWMTWVRQAPGKGLEWVANIKEDGSEKYYVDSVKGRFTISRDNARNSLFLQMNSLRADDTAVYYCARNLEVSNEFYVVTDNYYLMDVWGQGTTVTVSS
VL: DIQLTQSPSSLSASVGDRVTITCRASQSISFFLNWYRQKPGKAPKLLIYAASTLQSGVPSRFSGSGSGTDFTLTISSLQPEDFASYYCQQSYSTPHTFGQGTKVEIK
B9: ADI-20964 (antibody, V domains shown)
VH: QVQLVQSGAEVKKPGASVKVSCKASGYTFTHYGISWVRQAPGQGLEWMGWISAYNGNTNYAQKLQGRVTMTTDTSTSTAYMEVRSLRYDDTAVYYCARDVPVEAATSPEFWGQGTLVTVSS
VL: DIVMTQTPLSLPVTLGQPASISCRSSQSLVYSDGNTYLSWFQQRPGQSPRRLIYKVSNRDSGVPNRFSGSGSGTDFTLKISRVEAEDVGVYYCVQNTHWPAYTFGQGTKVEIK
B10: ADI-20982 (antibody, V domains shown)
VH: EVQLVESGPGLVKPSQTLSLTCSVSGVSISRGSYYWSWIRQPAGGGLEWIGRIYTSGVTRYNPSLESRVTISLDSSQNQFFLRLSSVTAADTAVYYCATRESASYSSGPDAFDIWGQGTTVTVSS
VL: DIQMTQSPSTLSASVGDRVIITCRASQSVNSWLAWYQQKPGKAPKLLIYQASSLESGVPSRFSGSGSGTEFTLTINSLQPDDFATYYCQQYKTFSRPFGQGTKVEIK
B11: ADI-20961 (antibody, V domains shown)
VH: QVQLVESGGGLVKPGGSLRLSCAASGFKFSSYYMHWVRQAPGKGLEWVSSVSGGSTYTSYADSVKGRFTISRDNAKHSLFLQLNSLRAEDTAVYHCVRGDYHPSGTSLNWFDPWGQGTLVTVSS
VL: QPGLTQPPSVSGAPGQRVTISCTGSSSNIGAGYDVHWYKQLPGTVPKLLIYANNNRPSGVPDRFSGSESGTSASLAITGLQAEDEADYYCQSYDSSLNAYVFGTGTKVTVL
B12: ADI-20991 (antibody, V domains shown)
VH: EVQLVESGGNLVKPGGSLRLSCAASGFTFSGYYMSWIRQAPGKGLEWISDISGGSSYTNYADSVKGRFTISRDNAKNSLYLQMNSLRAEDTAMYYCARVEYDTTGPFHFDYWGQGTLVTVSS
VL: QPVLTQPPSVSGAPGQRVTISCTGSSSNIGAGYDVHWYQQLPGTAPKLLIYGNNNRPSGVPDRLSGSKSGTSASLAITGLQAEDEADYYCQSYDSSLSGYVFGTGTKVTVL
B13: ADI-20973 (antibody, V domains shown)
VH: EVQLLESGGGLVKPAGSLRLSCAASGFSFSSYYMNWIRQAPGKGLEWVSDISGGSSYTNYADSVKGRFTVSRDNAKNSVYLQMNSLRGEDTAVYYCARGASTAATYTPTFDYWGQGILVTVSS
VL: QPVLTQPPSVSGAPGQRVTISCTGSSSNIGAGYDVHWYQQLPGTAPKLLMFGNNNRPSGVPDRFSGSKSGTSASLAITGLRPEDEADYYCQSYDRRLTVVFGGGTKLTVL
B14: ADI-20974 (antibody, V domains shown)
VH: EVQLVESGGGLVKPGGSLRLSCAASGFSFSSYQINWVRQAPGKGLEWVSSISGGSSYTDYADSIKGRFTISRDNAKKSAFLQMKSLRADDTAVYYCARALMATAGGLAFDIWGQGTMVTVSS
VL: QPVLTQPPSVSGAPGQRVTISCTGSGSNIGAGYDVHWYQQVPGTAPKLLILRNTNRPSGVPDRFSGSKSGTSASLAITGLQAEDEADYYCQSYDRSLSVVFGGGTKLTVL
B15: ADI-20962 (antibody, V domains shown)
VH: QVQLVQSGAEVKKPGASVKVSCKASGYTFSHYGLSWVRQAPGQGLEWMGWISAYNHNTNYAQKFQGRVTITTDTSTSTAYLEMRSLRSDDTAVYYCAREPPSDTAAGTGDYWGQGTLVTVSS
VL: DIVMTQSPLSLSVTLGQPASISCRSSQSLVYSDGNTYLTWFQQRPGQSPRRLIYKVSNRDSGVPDRFSGSGSGTDFTLKISRVEAEDVGVYYCMQGTQWPRTFGQGTKVDIK
B16: ADI-20970 (antibody, V domains shown)
VH: EVQLLESGGGLVKPGGSLRLSCAVSGFSFSNAWMSWVRQAPGKGLEWVGRIRSKTDGGTTDYAAPVKGRFTISRDDSKNTLYLQMNSLKTEDTAVYYCTTAPRYSTSWYPGYYYYYYMDVWGKGTTVTVSS
VL: DIQMTQSPSSLSASVGDRVTITCQASQDINFYLNWYQQKPGKAPKLLIYDASNLETGVPSRFSGSVSGTDFTFTISSLQPEDFATYYCQQYDDLPAFGGGTKVEIK
B17: ADI-21014 (antibody, V domains shown)
VH: QVQLQESGPGLVKPSETLSLICTVSGGSISNYYWSWIRQPPGKGLEWIGYVWFGTTKYNPSLKNRVTISVDTGKNQVSLKVNSVTAADTAIYYCARDSSIWYRGAFEIWGQGTTVTVSS
VL: DIRLTQSPSSLSASVGDRVTITCQASQDISNHLNWYQQRPGKAPELLIYDASTLETGGPSRFSGSGSGTDFTLTISSLQPEDFADYYCQQYDNLPVTFGGGTKVDIK
B18: ADI-20959 (antibody, V domains shown)
VH: EVQLLESGAEVKKPGASVKVSCKTSGYTFSNYGVSWVRQAPGQGLEWLGWISAYNGNTNYAQKLQGRVTMTTDSSTSTAYMEVRSLRSDDTAVYYCARDVAPVAASLFDYWGQGTLVTVSS
VL: DIRLTQSPLSLPVTLGQPASISCRSSQSLEFTDGNTYLSWFQQRPGQSPRRLIYKVSNRDSGVPDRFSGSGSGTDFTLKINRVEAEDVGVYYCMQGIHWPPTFGPGTKVEIK
B19: ADI-20979 (antibody, V domains shown)
VH: EVQLQESGPGLVKPSETLSLTCTVSGGSLRSYYWSWIRQPPGKGLEWIGNIYYGGSTNYNSSLKGRVTISIDTSKNQFSLRLSSVTAADTAVYYCARDGLFPMGEWDYWGQGILVTVSS
VL: QSALTQPASVSGSPGQSITISCTGTSNDVGDYNYVSWYQQHPGEAPKLMIYEVTNRPSGVSDRFSGSKSGNTASLTISGLQAEDEADYYCSSYTSSTSVVFGGGTQLTVL
notes: also called Ab 232

How the values were obtained:
Test in all cases: BLI, IgG
[1] = target: T1, RSV postfusion F (postF), subtype A (respiratory syncytial virus, subtype A, UniProt P03420 26-513)
T1 construct: also called F ΔFP; Postfusion subtype A

[2] = target: RSV prefusion F (preF), subtype A (respiratory syncytial virus, subtype A, UniProt P03420 26-513)
[3] = target: RSV prefusion F (preF), subtype B (respiratory syncytial virus, subtype B)

Row | Binder | binding result [1] | Kd [2] | Kd [3] | Kd [1]
1 | B1 | no binding | 0.333 nM | 0.544 nM | –
2 | B2 | – | 0.213 nM | 1.17 nM | 2.05 nM
3 | B3 | no binding | 0.301 nM | 0.409 nM | –
4 | B4 | no binding | 0.296 nM | 0.344 nM | –
5 | B5 | no binding | 4.16 nM | 24.1 nM | –
6 | B6 | no binding | 0.414 nM | 1.25 nM | –
7 | B7 | no binding | 0.294 nM | 1.29 nM | –
8 | B8 | no binding | 0.956 nM | 1.22 nM | –
9 | B9 | no binding | 0.36 nM | 2.49 nM | –
10 | B10 | no binding | 4.88 nM | 5.45 nM | –
11 | B11 | no binding | 0.374 nM | 0.504 nM | –
12 | B12 | no binding | 0.234 nM | 0.258 nM | –
13 | B13 | no binding | 0.308 nM | 0.417 nM | –
14 | B14 | no binding | 0.291 nM | 0.36 nM | –
15 | B15 | no binding | 0.289 nM | 0.463 nM | –
16 | B16 | no binding | 1.83 nM | 2.55 nM | –
17 | B17 | no binding | 0.408 nM | 0.378 nM | –
18 | B18 | no binding | 0.337 nM | 0.43 nM | –
19 | B19 | no binding | 0.979 nM | 4 nM | –
